Kd data for one substance are collected here from publication PMC9860306.

The Kd is the free concentration of one partner at which half of the binding sites on the other are occupied at equilibrium, for simple one-to-one binding. Low values mean a tighter complex, high ones a looser complex.

Assay [1] deals with rituximab, galactosylated afucosylated (G2) glycoform (human). The assay is described as follows: SPR; KD1. A general note: SPR reads the build-up and loss of mass on a sensor chip optically.
The target of assay [2] is rituximab, galactosylated fucosylated (G2F) glycoform (human). The assay is described as follows: SPR; KD1.
Assay [3] concerns the target rituximab, galactosylated afucosylated (G2) glycoform (human). The assay is described as follows: SPR; KD2 (second site).
Assay [4] has as its target rituximab, galactosylated fucosylated (G2F) glycoform (human). The assay is described as follows: SPR; KD2 (second site).

Sequence of rituximab, galactosylated fucosylated (G2F) glycoform (human) (main, as listed by the source, chain 1 of 2): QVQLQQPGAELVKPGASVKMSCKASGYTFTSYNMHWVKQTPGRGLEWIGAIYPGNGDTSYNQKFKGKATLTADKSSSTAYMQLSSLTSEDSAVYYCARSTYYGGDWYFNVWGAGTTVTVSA
Sequence of rituximab, galactosylated fucosylated (G2F) glycoform (human) (partner, as listed by the source, chain 2 of 2): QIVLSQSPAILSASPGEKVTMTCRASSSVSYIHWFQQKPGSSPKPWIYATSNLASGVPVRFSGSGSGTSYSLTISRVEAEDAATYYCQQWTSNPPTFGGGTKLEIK
Sequence of rituximab, galactosylated afucosylated (G2) glycoform (human) (main, as listed by the source, chain 1 of 2): as the sequence (main, as listed by the source, chain 1 of 2) above
Sequence of rituximab, galactosylated afucosylated (G2) glycoform (human) (partner, as listed by the source, chain 2 of 2): as the sequence (partner, as listed by the source, chain 2 of 2) above

With FcγRIIIA(V) tetramer, the Kd in assay [1] is 29.9 nM; in assay [2], 55.2 nM; in assay [3] it was 2.3 nM; in assay [4], 2.29 nM.
